From paper PMC4915132, “Structural insights of ZIP4 extracellular domain critical for optimal zinc transport” (Nature Communications, 2016)
Values belong to the molecule of their own block, whether it stands above or below them.

Tests used:
[1] = target: extracellular domain of ZIP14 from Pteropus alecto (Pteropus alecto); assay: SEC; purified protein on a size exclusion column; elution volume compared with standard proteins eluted on the same column
[2] = target: pZIP14-ECD C147S mutant (Pteropus alecto); assay: as above
[3] = target: the molecule itself; assay: as above
[4] = target: the molecule itself; assay: cross-linking; disulfide through an engineered cysteine; full-length hZIP4-HA transiently expressed in HEK293T cells; 4-20% gradient SDS-PAGE with or without 5% β-mercaptoethanol, western blot with anti-HA

- stoichiometry N [1]: 2
Molecule: extracellular domain of ZIP14 from Pteropus alecto (from UniProt A5D7L5 61-174) (domain or fragment)

- stoichiometry N [2]: 2
Molecule: pZIP14-ECD C147S mutant (from UniProt A5D7L5 61-174) (domain or fragment)

B1: ZIP4 extracellular domain from Pteropus alecto (black fruit bat) (domain or fragment, UniProt L5KLU7 36-322, looked up)
chain: SGQGALDRVALGGLLNTLAARVHCTSGPCGKCLSVDDLLALGRPEEPGHLARLSAAAALYLSDPEGTCEDIRAGRWASRADHLLALLEGPKALAPGLSRLLQRIQAQTTGQPSAGEACVDPPQLLREAGVAGAPGSPGPVLATLLEHVGRGSCFHTLPTPQYFVDFVFQQSHGNTPNISVAELAALMQRLGVGGVTETHSDHHHQEKRVNRQGPTPLTAPNSSSDTWDTVCLSARDVMAVYGLSEQTGVTPEAWAQLSPALLQQQLSGACSPQPSHPAQNQLSQAEK
notes: Zinc transporter ZIP4 (SLC39A4) of Pteropus alecto, GenBank ELK11751, residues 36-322 (extracellular domain: HRD 36-191 and PCD 192-322); A selenomethionine-substituted form was also crystallised for phasing; Four intramolecular disulfide bonds (C59-C64, C67-C103, C153-C188, C266-C305); also called pZIP4-ECD; ZIP4-ECD; source: E. coli Origami B(DE3) pLysS, purified (Ni-NTA, Mono-Q, SEC); not …
- stoichiometry N [3]: 2

B2: full-length human ZIP4 S297C mutant with C-terminal HA tag (natural protein, UniProt Q6P5W5-1 23-647, looked up)
chain: SPPAGLLSLLTSGQGALDQEALGGLLNTLADRVHCANGPCGKCLSVEDALGLGEPEGSGLPPGPVLEARYVARLSAAAVLYLSNPEGTCEDARAGLWASHADHLLALLESPKALTPGLSWLLQRMQARAAGQTPKMACVDIPQLLEEAVGAGAPGSAGGVLAALLDHVRSGSCFHALPSPQYFVDFVFQQHSSEVPMTLAELSALMQRLGVGREAHSDHSHRHRGASSRDPVPLISSSNSSSVWDTVCLSARDVMAAYGLSEQAGVTPEAWAQLCPALLQQQLSGACTSQSRPPVQDQLSQSERYLYGSLATLLICLCAVFGLLLLTCTGCRGVTHYILQTFLSLAVGAVTGDAVLHLTPKVLGLHTHSEEGLSPQPTWRLLAMLAGLYAFFLFENLFNLLLPRDPEDLEDGPCGHSSHSHGGHSHGVSLQLAPSELRQPKPPHEGSRADLVAEESPELLNPEPRRLSPELRLLPYMITLGDAVHNFADGLAVGAAFASSWKTGLATSLAVFCHELPHELGDFAALLHAGLSVRQALLLNLASALTAFAGLYVALAVGVSEESEAWILAVATGLFLYVALCDMLPAMLKVRDPRPWLLFLLHNVGLLGGWTVLLLLSLYEDDITF
notes: Human zinc transporter ZIP4 (SLC39A4), GenBank BC062625, with S297C (S297 is equivalent to S293 in pZIP4); Intermolecular disulfide C297-C297* in the dimer; also called S297C mutant ZIP4; source: HEK293T, transiently transfected, in lysate; not shown: HA, C-terminal, kept
- stoichiometry N [4]: 2
